Laboratory results taken from patent US20250206841A1 (ADEPT THERAPEUTICS, published 2025).

T1: mouse Trop-2 (mouse, UniProt Q8BGV3 25-270, limits assumed)
T1 construct: also called Kactus Cat #TRP-MM121
T1 sequence (looked up): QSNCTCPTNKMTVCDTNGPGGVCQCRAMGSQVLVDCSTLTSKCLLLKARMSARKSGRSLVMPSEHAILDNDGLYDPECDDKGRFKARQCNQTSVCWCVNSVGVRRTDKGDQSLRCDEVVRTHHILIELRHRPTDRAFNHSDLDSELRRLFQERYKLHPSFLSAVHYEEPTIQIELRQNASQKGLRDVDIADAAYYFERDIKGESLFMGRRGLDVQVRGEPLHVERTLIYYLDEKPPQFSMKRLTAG

T2: rat Trop-2 (rat, UniProt Q6P9Z6 25-270, limits assumed)
T2 sequence (looked up): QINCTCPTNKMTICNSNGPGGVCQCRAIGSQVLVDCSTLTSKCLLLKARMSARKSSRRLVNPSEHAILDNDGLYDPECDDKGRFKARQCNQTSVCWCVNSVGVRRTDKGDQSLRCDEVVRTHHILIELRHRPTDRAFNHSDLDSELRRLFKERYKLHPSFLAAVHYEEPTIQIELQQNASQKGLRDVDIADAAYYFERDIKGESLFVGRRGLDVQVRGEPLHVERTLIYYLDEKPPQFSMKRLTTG

T3: human Trop-2 expressed on cell surface (human, UniProt P09758 27-323)
T3 sequence (looked up): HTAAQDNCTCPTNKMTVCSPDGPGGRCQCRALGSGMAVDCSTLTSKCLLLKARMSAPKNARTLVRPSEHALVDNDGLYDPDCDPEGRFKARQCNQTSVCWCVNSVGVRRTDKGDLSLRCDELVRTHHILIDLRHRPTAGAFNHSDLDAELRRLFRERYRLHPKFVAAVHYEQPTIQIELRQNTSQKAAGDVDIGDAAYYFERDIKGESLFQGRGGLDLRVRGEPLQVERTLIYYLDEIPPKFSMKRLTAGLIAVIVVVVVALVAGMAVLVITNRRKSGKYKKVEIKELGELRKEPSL

T4: human Trop-2-His protein (human, UniProt P09758 27-274)
T4 construct: extracellular domain; Assay paragraphs say only 'Trop-2-His'; also called hTrop-2; Kactus Cat #TRP-HM121; not shown: His tag
T4 sequence (looked up): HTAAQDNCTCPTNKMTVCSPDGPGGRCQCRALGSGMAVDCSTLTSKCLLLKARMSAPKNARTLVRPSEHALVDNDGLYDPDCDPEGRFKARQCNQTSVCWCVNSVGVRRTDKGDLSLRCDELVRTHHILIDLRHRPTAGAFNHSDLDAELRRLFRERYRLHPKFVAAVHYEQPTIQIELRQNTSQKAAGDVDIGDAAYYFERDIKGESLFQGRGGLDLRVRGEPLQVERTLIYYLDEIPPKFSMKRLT


How the values were obtained:
mouse Trop-2 = target: T1, mouse Trop-2; assay: ELISA, similar to Table 24
Procedure: (§1) Purified antibodies were tested by ELISA to confirm their binding and affinity against human and cynomolgus Trop-2-His protein. Briefly, 96-well Maxisorp plates (Nunc) were coated with 100 μl/well of 0.5 μg/ml human (Kactus Cat #TRP-HM121, or Sino Biological, Cat #10428-HO8H) or cynomolgus Trop-2 protein (Kactus Cat #TRP-CM121, or Sino Biological, Cat #90893-CO8H) diluted in 1×PBS (GIBCO) overnight at 4° C. Plates were washed four times with 300 μl/well washing buffer (1×PBST, diluted from 20×PBST (Thermo Scientific) with distilled water)) and then blocked with 300 μl/well of blocking buffer (1×PBST/3% BSA (BSA, Sigma)) for 2 hours at RT on plate shaker at 100 rpm. Plates were washed and added with 100 μl/well of testing antibodies, which were serial diluted with assay buffer (PBST/1% BSA). The antibodies were incubated at room temperature for 2 hours on plate shaker at 100 rpm. Plates were washed. One hundred microliters (100 μl) of 1:10,000 diluted horseradish peroxidase (HRP) conjugated anti-hIgG antibody (Jackson Immuno Research) was added into each well and incubated at room temperature for 1 hour on plate shaker at 100 rpm. Plates were washed and added with 100 μl/well TMB substrate for color development in dark at room temperature for up to 10 minutes. After addition of 50 μl/well of stop solution (1N H₂SO₄), plates were read at 450 nm on a plate reader (SpectraMax M5). EC₅₀ values were calculated using Graphpad Prism. Sacituzumab govitecan, was used as positive control. Anti-HEL.hIgG1 was used as isotype control.
(§2) Similar assays were performed to test whether the exemplary antibodies of the present disclosure bind to human Trop-1 (EpCAM) or mouse Trop-2 (Kactus, Cat #TRP-MM121) or rat Trop-2 (kactus, Cat #TRP_RM121). No binding of the exemplary antibodies of the present disclosure to human Trop-1 (EpCAM) or mouse or rat Trop-2 has been detected.

rat Trop-2 = target: T2, rat Trop-2; assay: ELISA, similar to Table 24
Procedure: as §1, §2

[1] = target: T3, human Trop-2 expressed on cell surface; assay: cell-based or functional assay
[2] = target: T3, human Trop-2 expressed on cell surface; assay: flow cytometry, MDA-MB-231-GFP cells
Procedure: Cells were then resuspended in FACS buffer (1×DPBS/1% FBS) at 10⁶/ml concentration. One hundred microliter (100 μl) of cells were aliquoted into a single well in 96 well plates. The antibodies to be tested were serially diluted at 1:3 fold starting at 15 μg/mL and were then added into each well. The antibodies were mixed with cells and the mixtures were incubated on ice for 1 hour. After washing with FACS buffer, one hundred microliter (100 μl) of 1:400 diluted PE-conjugated anti-human Fc secondary antibody (Jackson Immuno Research) was added into each well and incubated for 30 minutes on ice. After washing with FACS buffer, stained cells were resuspended at diluted 7-ADD (Biolegend, used at 1:100 dilution) and analyzed on Guava 11HT or 5HT (Luminex). Data was analyzed using Flowjo software. EC₅₀ values were calculated using GraphPad Prism. Sacitnzurnab govitecan was used as positive control. Anti-HEL.hIgG1 was used as isotype negative control. Similar assay was performed using MCF-7 cells (known to express human Trop-2).

human Trop-2-His protein = target: T4, human Trop-2-His protein; assay: BLI (Gator Plus), purified Ab on HFC probe
Procedure: The affinity of the binding of the exemplary anti-Trop-2 antibodies of the present disclosure were determined. Assay was performed using Gator Plus according to the protocol recommended by Gator Bio Inc.. Briefly, human Trop-2-His (Kactus) was 1:4 fold serially diluted starting at 1 μg/ml. After three times of regeneration and neutralization of HFC probe, 1 μg/ml of antibody to be tested in Q buffer was immobilized onto HFC probe. […] The association and dissociation of human Trop-2-His antigen from antibody was measured on BLI machine Gator Plus. Affinity was calculated using Gator Bio analysis software. Blank control was used for reference subtraction. Sacituzumab govitecan was used as positive control.

Row | Binder | binding result (mouse Trop-2) | binding result (rat Trop-2) | EC50 of ADCC (NFAT-CD16 reporter), MCF-7 [1] | EC50 of ADCC (NFAT-CD16 reporter), MDA-MB-231 [1] | EC50 [2] | Kd (human Trop-2-His protein) | koff (human Trop-2-His protein) | kon (human Trop-2-His protein)
1 | 9D7 (antibody, V domains shown, Rabbit-derived clone; LEM construct: VH + rabbit IgG CH1 + human IgG1 CH2-CH3) VH: QSLEESGGDLVQPGASLTLTCKASGFDLNNYSILWVRQAPGKGLEWIGCIYISGGSTYYANWAKGRFAISKTSSTTVTLQMTSLTAADTATYFCARDDGTASYYLNLWGPGTLVTVSS VL: YDMTQTPASVSEPVGGTVTIKCQASEDIYKLLAWYQQKPGQPPKLLIYAASDLESGVPSRFKGRGSGTDYTLTISDLECADAATYYCQQAYTIGNIDNSFGGGTEVVVK | no binding | no binding | 0.28 nM | 0.09 nM | 0.03 nM | < 0.002 nM | < 1e-06 s⁻¹ | 432000 M⁻¹ s⁻¹
2 | 9D7-2 (antibody, V domains shown) VH: QSLEESGGDLVQPGASLTLTCKASGFDLNNYSILWVRQAPGKGLEWIGSIYISGGSTYYANWAKGRFAISKTSSTTVTLQMTSLTAADTATYFCARDDGTASYYLNLWGPGTLVTVSS VL: YDMTQTPASVSEPVGGTVTIKCQASEDIYKLLAWYQQKPGQPPKLLIYAASDLESGVPSRFKGRGSGTDYTLTISDLEAADAATYYCQQAYTIGNIDNSFGGGTEVVVK | no binding | no binding | 0.23 nM | 0.11 nM | 0.1 nM | 2.86 nM | 0.00126 s⁻¹ | 438000 M⁻¹ s⁻¹
3 | 1D10 (antibody, V domains shown, Rabbit-derived clone; LEM construct: VH + rabbit IgG CH1 + human IgG1 CH2-CH3) VH: QEQLKESGGGLVQPGGSLTLSCKASGFDFNYYGVSWVRQAPGKGLEWIGYIYPAYHNTYYATWVNGRFTISSHNAQNTLYLQLNTLTAADTATYFCARDAGSTDYNLNLWGPGTLVTVSS VL: DVVMTQTPASVEVAVGGTVTIKCQASEDIESYLAWYQQKPGQPPRLLIYEASKLASGVSSRFSGGGYGTDFTLTISGVECADAATYYCHQALTIGNVDNPFGGGGEVVVK | no binding | no binding | 0.28 nM | 0.04 nM | 0.01 nM | 0.22 nM | 0.000131 s⁻¹ | 604000 M⁻¹ s⁻¹
4 | 72F12 (antibody, V domains shown, Rabbit-derived clone; LEM construct: VH + rabbit IgG CH1 + human IgG1 CH2-CH3) VH: QEQLKESGGGLVQPGGSLKLSCKASGFDFNNYGVSWVRQAPGKGLEWIAYIYPAFHNTYYATWVNGRFTISSHNAQNTLYLQLNSLTAADTATYFCARDAGSVDYNFNLWGPGTLVTVSS VL: DVVMTQTPASVEVAVGGTVTIKCQASKNIDSNLAWYQQKPGQPPKQLIYAASTLASGVSSRFSGSGYGAEFTLTISGVECADAATYYCQQALTIGNVDNPFGGGSEVVVK | no binding | no binding | 0.16 nM | 0.07 nM | 0.01 nM | 0.63 nM | 0.000541 s⁻¹ | 865000 M⁻¹ s⁻¹
5 | 62E3 (antibody, V domains shown, Rabbit-derived clone; LEM construct: VH + rabbit IgG CH1 + human IgG1 CH2-CH3) VH: QEQLKESGGGLVQPGGSLKLSCKASGFDFNEYGVSWVRQAPGKGLEWIAYIYPAFHNTYYATWVNGRFTISSHNAQNTLYLQLNTLTAADTATYFCARDAGTTDYNFNLWGPGTLVTVSS VL: DVVMTQTASPVSAAVGGTVTIKCQASEDIESYLAWYQQKPGQPPKLLIYEASKLASGVSSRFSGSGYGTEFTLTISGVECADAATYYCQQALTIGNVDNPFGGGSEVVVK | no binding | no binding | 0.4 nM | 0.04 nM | 0.01 nM | 0.59 nM | 0.000429 s⁻¹ | 726000 M⁻¹ s⁻¹
6 | 9F7 (antibody, V domains shown, Rabbit-derived clone; LEM construct: VH + rabbit IgG CH1 + human IgG1 CH2-CH3) VH: QEQLKESGGGLVQPGGSLTLSCKASGFDFNNYGVSWVRQAPGKGLEWIGYIYPAYHNTYYATWVNGRFTISSHNAQNTLYLQLNTLTAADTATYFCARDTGSTDYNFNLWGPGTLVTVSS VL: DVVMTQTPASVEVAVGGTVTIKCQASEDIESYLAWYQQKPGQPPKLLIYEASKLASGVSSRFSGGGYGTEFTLTISGVECADAATYYCQQALTVGNVDNPFGGGSEVVVK | no binding | no binding | 0.18 nM | 0.03 nM | 0.03 nM | 0.04 nM | 2.8e-05 s⁻¹ | 634000 M⁻¹ s⁻¹
